Two variants from IntAct's records for PubMed 24075010 can be followed below.

B1: Myocyte-specific enhancer factor 2 (Drosophila melanogaster (Fruit fly)), P40791 (parent)
chain: MGRKKIQISRITDERNRQVTFNKRKFGVMKKAYELSVLCDCEIALIIFSSSNKLYQYASTDMDRVLLKYTEYNEPHESLTNKNIIEKENKNGVMSPDSPEAETDYTLTPRTEAKYNKIDEEFQNMMQRNQMAIGGAGAPRQLPNSSYTLPVSVPVPGSYGDNLLQASPQMSHTNISPRPSSSETDSGGMSLIIYPSGSMLEMSNGYPHSHSPLVGSPSPGPSPGIAHHLSIKQQSPGSQNGRASNLRVVIPPTIAPIPPNMSAPDDVGYADQRQSQTSLNTPVVTLQTPIPALTSYSFGAQDFSSSGVMNSADIMSLNTWHQGLVPHSSLSHLAVSNSTPPPATSPVSIKVKAEPQSPPRDLSASGHQQNSNGSTGSGGSSSSTSSNASGGAGGGGAVSAANVITHLNNVSVLAGGPSGQGGGGGGGGSNGNVEQATNLSVLSHAQQHHLGMPNSRPSSTGHITPTPGHDKYEGYPYRALMGHNPRWNLNFAGAPSSDQDVRLAAVAVQQQQQQPHQQQQLGDYDAPNHKRPRISGGWGT
partner: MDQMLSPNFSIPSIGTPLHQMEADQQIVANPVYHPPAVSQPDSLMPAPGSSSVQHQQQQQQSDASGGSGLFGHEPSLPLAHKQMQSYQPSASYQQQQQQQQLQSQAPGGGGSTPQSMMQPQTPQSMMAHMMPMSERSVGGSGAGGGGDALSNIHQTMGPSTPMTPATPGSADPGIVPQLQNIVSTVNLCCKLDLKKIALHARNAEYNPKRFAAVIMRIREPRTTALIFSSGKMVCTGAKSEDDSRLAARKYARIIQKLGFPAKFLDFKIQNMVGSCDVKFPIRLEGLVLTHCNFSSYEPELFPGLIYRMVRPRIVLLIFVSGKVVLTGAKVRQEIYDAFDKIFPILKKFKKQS

The assay covers variants of B1. The note with it: with tbp_drome Tbp.
As to T20E, the “effect of a mutation on the interaction” value was “decreasing interaction strength”. Next, T20A: “increasing interaction strength”.
